Target: the molecule itself
Test: SEC

B1: full-length human adiponectin (ligand)
chain: ETTTQGPGVLLPLPKGACTGWMAGIPGHPGHNGAPGRDGRDGTPGEKGEKGDPGLIGPKGDIGETGVPGAEGPRGFPGIQGRKGEPGEGAYVYRSAFSVGLETYVTIPNMPIRFTKIFYNQQNHYDGSTGKFHCNIPGLYYFAYHITVYMKDVKVSLFKKDKAMLFTYDQYQENNVDQASGSVLLHLEVGDQVWLQVYGEGERNGLYADNDNDSTFTGFLLYHDTN
  binding result: binds

Reference: paper PMC5595237 (Nature, 2017)
